For this test, the target named is KIX. The test is described as follows: fluorescence polarization. Background: Polarisation of emitted light reports the rotation of a fluorescent probe.

Kd data for one substance are collected here from patent publication US20120270800A1.

In general, Kd refers to the free concentration of one partner at which half of the binding sites on the other are occupied at equilibrium, for simple one-to-one binding.

In turn, MLL WT gave a Kd of 0.089 µM. In other words, the double-digit nanomolar range.
